± gives the uncertainty stated by the source.
Test: self-splicing fitness, log relative to wild type (ln ratio); higher = more splicing; Tetrahymena group I intron in knt gene, E. coli kanamycin selection, DiMSum; sequences stand for … in CUCUCU…GGAGGGAAAAGUUAUCAGGCAUGCACCUGGUAGCUAGUCUUUAAACCAAUAGAUUGCAUCGGUUUAAAAGGCAAGACCGUCAAAUUGCGGGAAAGGGGUCAACAGCCGUUCAGUACCAAGUCUCAGGGGAAACUUUGAGAUGGCCUUGCAAAGGGUAUGGUAAUAAGCUGACGGACAUGGUCCUAACCACGCAGCCAAGUCCUAAGUCAACAGAUCUUCUGUUGAUAUGGAUGCAGUUCACAGACUAAAUGUCGGUCGGGGAAGAUGUAUUCUUCUCAUAAGAUAUAGUCGGACCUCUCCUUAAUGGGAGCUAGCGGAUGAAGUGAUGCAACACUGGAGCCGCUGGGAACUAAUUUGUAUGCGAAAGUAUAUUGAUUAGUUUUGGAGUACUCGUGGUCG
Summary of the method: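 DiMSum derived fitness as the error-weighted combination of fold changes across replicates, kanamycin versus no kanamycin, normalised to wild type. E. coli BL21(DE3) held the library, which randomised all eight P1ex-region intron nucleotides within the knt kanamycin-resistance gene on pET-22b(+). Six replicate transformations grew overnight at 37°C or 30°C on LB agar with or without 25 μg/mL kanamycin, also containing 100 μg/mL carbenicillin, 50 μM IPTG and 0.2% rhamnose, and pooled colonies were amplicon-sequenced on an Illumina HiSeq 2500.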

| Sequence | self-splicing fitness (ln) (30 °C) | self-splicing fitness (ln) (37 °C) |
| --- | --- | --- |
| CGGAAGCAAUAUUACGUGUU | -3.75 ± 0.17 | -2.43 ± 0.17 |
| CGGAAGCAAUAUUACGUUGA | -3.33 ± 0.16 | -2.65 ± 0.15 |
| CGGCAGCAAUAUUACGAAAG | -0.748 ± 0.1 | -0.538 ± 0.12 |
| CGGCAGCAAUAUUACGAAGA | -2.55 ± 0.17 | -1.25 ± 0.18 |
| CGGCAGCAAUAUUACGACAC | -3.52 ± 0.24 | -2.65 ± 0.21 |
| CGGCAGCAAUAUUACGAGAA | -3.01 ± 0.19 | -2.32 ± 0.19 |
| CGGCAGCAAUAUUACGAGAG | -3.21 ± 0.23 | -1.44 ± 0.2 |
| CGGCAGCAAUAUUACGAGGG | -2.39 ± 0.39 | -2.15 ± 0.33 |
| CGGCAGCAAUAUUACGAGUU | -5.14 ± 0.41 | -2.69 ± 0.29 |
| CGGCAGCAAUAUUACGCAUU | -2.66 ± 0.15 | -2.33 ± 0.14 |
| CGGCAGCAAUAUUACGCCUA | -0.162 ± 0.17 | 0.427 ± 0.13 |
| CGGCAGCAAUAUUACGCGAU | -2.36 ± 0.19 | -1.4 ± 0.25 |
| CGGCAGCAAUAUUACGCUAG | -2.62 ± 0.17 | -1.34 ± 0.18 |
| CGGCAGCAAUAUUACGCUGG | -3.32 ± 0.16 | -2.23 ± 0.21 |
| CGGCAGCAAUAUUACGGGGC | -2.42 ± 0.18 | -2.69 ± 0.33 |
| CGGCAGCAAUAUUACGGGUG | -0.564 ± 0.046 | -0.449 ± 0.06 |
| CGGCAGCAAUAUUACGGUGU | -4.04 ± 0.2 | -2.55 ± 0.17 |
| CGGCAGCAAUAUUACGUAGU | -3.77 ± 0.21 | -0.852 ± 0.12 |
| CGGCAGCAAUAUUACGUAUA | -3.35 ± 0.27 | -2.8 ± 0.23 |
| CGGCAGCAAUAUUACGUCCU | 0.101 ± 0.067 | 0.44 ± 0.092 |
| CGGCAGCAAUAUUACGUCGG | -1.42 ± 0.079 | -0.417 ± 0.098 |
| CGGCAGCAAUAUUACGUGCC | -2.66 ± 0.28 |  |
| CGGCAGCAAUAUUACGUGUG | -1.09 ± 0.036 | -0.654 ± 0.05 |
| CGGCAGCAAUAUUACGUGUU | -3.41 ± 0.13 | -1.95 ± 0.13 |
| CGGGAGCAAUAUUACGAGUU | -3.12 ± 0.27 | -2.59 ± 0.36 |
| CGGGAGCAAUAUUACGAUAG |  | -1.97 ± 0.37 |
| CGGGAGCAAUAUUACGAUCC | -3.35 ± 0.21 | -1.68 ± 0.22 |

| Sequence | self-splicing fitness (ln) (30 °C) | self-splicing fitness (ln) (37 °C) |
| --- | --- | --- |
| CGGGAGCAAUAUUACGAUUU | -3.64 ± 0.33 | -1.2 ± 0.24 |
| CGGGAGCAAUAUUACGCCUG | -2.39 ± 0.28 |  |
| CGGGAGCAAUAUUACGCGAU |  | -1.6 ± 0.41 |
| CGGGAGCAAUAUUACGCGUG | -3.47 ± 0.18 | -1.65 ± 0.13 |
| CGGGAGCAAUAUUACGGCGG | -1.17 ± 0.11 | -1.09 ± 0.19 |
| CGGGAGCAAUAUUACGGGAA |  | -1.85 ± 0.41 |
| CGGGAGCAAUAUUACGGGGC |  | -2.14 ± 0.43 |
| CGGGAGCAAUAUUACGGGUC |  | -2.97 ± 0.48 |
| CGGGAGCAAUAUUACGGGUU | -2.34 ± 0.32 | -2.53 ± 0.26 |
| CGGGAGCAAUAUUACGGUAA | -3.01 ± 0.34 | -1.13 ± 0.21 |
| CGGGAGCAAUAUUACGGUGA | -2.3 ± 0.33 |  |
| CGGGAGCAAUAUUACGGUGC | -3.21 ± 0.49 |  |
| CGGGAGCAAUAUUACGUGAA |  | -2.15 ± 0.3 |
| CGGGAGCAAUAUUACGUGAC | -2.16 ± 0.32 | -2.9 ± 0.44 |
| CGGGAGCAAUAUUACGUGCG | -2.41 ± 0.46 | -1.33 ± 0.43 |
| CGGGAGCAAUAUUACGUUAU | -2.65 ± 0.26 | -3.21 ± 0.47 |
| CGGUAGCAAUAUUACGACGA | -1.46 ± 0.19 | 0.22 ± 0.17 |
| CGGUAGCAAUAUUACGAGUC | -2.07 ± 0.43 |  |
| CGGUAGCAAUAUUACGCAAA |  | -1.6 ± 0.42 |
| CGGUAGCAAUAUUACGCAGA | -1.8 ± 0.29 | -1.91 ± 0.2 |
| CGGUAGCAAUAUUACGCAUC |  | -2.58 ± 0.21 |
| CGGUAGCAAUAUUACGCUAG | -2.28 ± 0.34 | -0.219 ± 0.24 |
| CGGUAGCAAUAUUACGCUGC |  | -2.17 ± 0.49 |
| CGGUAGCAAUAUUACGCUGU | -3.2 ± 0.23 | -3.02 ± 0.37 |
| CGGUAGCAAUAUUACGGAAU |  | -1.93 ± 0.47 |
| CGGUAGCAAUAUUACGGAUA |  | -1.54 ± 0.3 |
| CGGUAGCAAUAUUACGGCCA | 0.0804 ± 0.18 | -0.151 ± 0.24 |
